From US20050042220A1 (GENETICS INSTITUTE, published 2005)

T1: IL-22R-Fc/IL-10R2-Fc heterodimer from co-expressing CHO cells (human, UniProt Q8N6P7 16-228; Q08334 20-220)
T1 construct: extracellular domain; also called IL-22R/IL-10R2-Fc heterodimer; IL-22R-Fc/IL-10R2-Fc complex; not shown: human IgG1 Fc
T1 sequence 1: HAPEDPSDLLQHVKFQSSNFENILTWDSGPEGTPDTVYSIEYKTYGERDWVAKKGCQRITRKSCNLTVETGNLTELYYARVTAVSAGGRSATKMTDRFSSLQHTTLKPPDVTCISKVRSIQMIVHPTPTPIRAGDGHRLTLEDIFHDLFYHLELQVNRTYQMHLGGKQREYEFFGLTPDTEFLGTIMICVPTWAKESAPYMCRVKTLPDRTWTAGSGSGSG
T1 sequence 2: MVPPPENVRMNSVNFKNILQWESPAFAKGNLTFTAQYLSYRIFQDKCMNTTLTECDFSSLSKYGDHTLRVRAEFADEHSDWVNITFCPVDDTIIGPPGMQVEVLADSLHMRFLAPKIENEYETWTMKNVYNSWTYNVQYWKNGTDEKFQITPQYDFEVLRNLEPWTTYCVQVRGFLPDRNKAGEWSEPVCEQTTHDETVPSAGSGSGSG

B1: biotinylated N terminal His/Flag tagged human IL-22 (ligand)
chain: GSGHHHHHHGSGDYKDDDDKAPISSHCRLDKSNFQQPYITNRTFMLAKEASLADNNTDVRLIGEKLFHGVSMSERCYLMKQVLNFTLEEVLFPQSDRFQPYMQEVVPFLARLSNRLSTCHIEGDDLHIQRNVQKLKDTVKKLGESGEIKAIGELDLLFMSLRNACI
modifications: biotinylated with EZ-Link Sulfo-NHS-Biotin (sites not given)
notes: also called bio-IL-22; biotinylated IL-22
B2: human IL-22 binding protein-Fc fusion (Fc fusion)
chain: TQSTHESLKPQRVQFQSRNFHNILQWQPGRALTGNSSVYFVQYKIYGQRQWKNKEDCWGTQELSCDLTSETSDIQEPYYGRVRAASAGSYSEWSMTPRFTPWWETKIDPPVMNITQVNGSLLVILHAPNLPYRYQKEKNVSIEDYYELLYRVFIINNSLEKEQKVYEGAHRAVEIEALTPHSSYCVVAEIYQPMLDRRSQRSEERCVEIPAGSGSGSG
notes: Fc fusion homodimer, used as CHO conditioned medium; also called IL-22BP-Fc; huIL22BP-huFc; not shown: human IgG1 Fc
B3: human IL-22R extracellular domain-Fc fusion homodimer (Fc fusion)
chain: T1 sequence 1
notes: extracellular domain; Used as CHO conditioned medium, not purified; also called IL-22R-Fc; IL-22RECD-Fc; not shown: human IgG1 Fc

Experiments:
[1] = target: B3; assay: ELISA, IL-22R-Fc captured on anti-human IgG, bio-IL-22 titrated (FIG. 6A)
Description: (§1) After a final set of washes, 100 μl of TMB Microwell peroxidase substrate (BioFX, Owings Mills, Md.) was added for 20 minutes and the reaction stopped with 100 μl 2N H₂SO₄. Colorimetric detection of the peroxidase product was done at 450 nm in a Molecular Devices (Sunnyvale, Calif.) microplate reader.
FIG. 6B depicts the results form an ELISA assay performed in the opposite format, whereby 100 µl of 1 µg/ml biotinylated IL-22 was added to Reacti-Bind 96 well streptavidin-coated plates (Pierce, Rockford, Ill.) for one hour. After washing, Fc fusion receptor was added at various concentrations to the plates for one hour, washed and then detected with goat anti-human IgG-HRP. In FIG. 6A, fifty ng/ml of total Fc in conditioned media (CM) from CHO cells expressing either IL-22R-Fc (▪) or IL-10R2-Fc (O) was captured onto anti-human IgG coated wells. Biotinylated IL-22 (bio-IL-22) at various concentrations was then added to the wells. Bound bio-IL-22 was subsequently detected using streptavidin-HRP. In FIG. 6B, bio-IL-22 (1 μg/ml) was captured onto streptavidin plates. […] Bound receptor Fc was subsequently detected using goat anti-human IgG-HRP.
IL-22 binding to the extracellular domain (ECD) of IL-22R and IL-10R2 was evaluated using two ELISA formats. […] Biotinylated IL-22 was then added and detected with streptavidin-HRP. […] Receptor-Fc were then added and detected with HRP-conjugated, anti-hIgG.

[2] = target: T1, IL-22R-Fc/IL-10R2-Fc heterodimer from …; assay: ELISA, 50 ng/ml total Fc from co-expressing CHO captured on anti-human IgG, bio-IL-22 titrated (FIG. 8A)
Description: The results shown in FIGS. 6A, 8A-8B, 9A-9B, 10B-10C and 11A-11C were obtained from ELISA assays where receptor Fc from CHO CM were first immobilized via an anti-hIgG coat. Flat bottom, 96-well ELISA plates (Costar, Cambridge, Mass.) were coated overnight at 4° C. with 100 μl goat anti-human IgG antibody (Southern Biotech Associates, Inc., Birmingham, Ala.) at 1 μg/ml in 0.1 M sodium carbonate buffer (pH 9.6). The plates were washed twice with 200 pi phosphate-buffered saline containing 0.05% Tween 20 (PBS-T), blocked with 100 μl 1% BSA (Sigma, St. Louis, Mo.) in PBS-T for 1 hour and washed three times. Following by one hour sequential incubations (100 ul), each separated by three washes, were then employed: a given receptor fusion(s) at a fixed concentration or serially diluted, biotinylated IL-22 (bio-IL-22) at a fixed concentration or serially diluted, and then 1/10,000 dilution of streptavidin-horse radish peroxidase (HRP) (Southern Biotech Associates, Inc., Birmingham, Ala.). […] Colorimetric detection of the peroxidase product was done at 450 nm in a Molecular Devices (Sunnyvale, Calif.) microplate reader.
IL-22 binding to the ECD of IL-22R and IL-10R2 secreted as Fc heterodimer was then evaluated. […] The ability of cytokine to bind was then evaluated using various concentrations of bio-IL-22 as the detector (FIG. 8A). […]

[3] = target: B1; assay: competition ELISA (printed as ND50): IL-22BP-Fc pre-incubated with bio-IL-22 30 ng/ml, binding to captured IL-22R-Fc; IL-22R-Fc homodimer immobilized (FIG. 11A)
Description: as §1
(§2) For certain ELISA assays of the above format where both the receptor Fc and bio-IL-22 are at a fixed concentration, IL-10R2-Fc was added at various concentrations either before or with bio-IL-22 (FIG. 9A) or after the bio-IL-22 (FIG. 9B). For other ELISA assays of the above format where the indicated receptor Fc and bio-IL-22 are also at a fixed concentration, antibodies (FIG. 10B-10C., 11C) or IL-22BP (FIG. 11A-11B) were added at various concentrations after a pre-incubation with the bio-IL-22 for 30 minutes. For ELISA assays in which the recruitment of IL-10R2-Fc to the IL-22/IL-22R complex was detected directly (data not shown, experimental design of FIG. 9A), non-biotinylated IL-22 was added to the ELISA and either polyclonal goat anti-hIL-10R2 or a mouse monoclonal anti-hIL-10R2 (R&D Systems, Inc, Minneapolis, Minn.) was used as detector.
(§3) IL-22 binding protein (IL-22BP) is a soluble ‘receptor’ for IL-22 that has low homology to the extracellular domain of IL-22R. […]

[4] = target: B1; assay: blocking ELISA: IL-22BP-Fc pre-incubated 30 min with bio-IL-22 (30 ng/ml), added to 50 ng/ml IL-22R-Fc captured on anti-human IgG wells; bound bio-IL-22 read with streptavidin-HRP, A450; blocked partner IL-22R-Fc
Description: as §1, §2, §3

[5] = target: B1; assay: competition ELISA (printed as ND50): IL-22BP-Fc pre-incubated with bio-IL-22 5 ng/ml, binding to captured IL-22R/IL-10R2-Fc heterodimer (FIG. 11B by its legend); IL-22R/IL-10R2-Fc heterodimer immobilized (FIG. 11B; printed as FIG. 6B)
Description: Colorimetric detection of the peroxidase product was done at 450 nm in a Molecular Devices (Sunnyvale, Calif.) microplate reader.
as §2
IL-22 binding protein (IL-22BP) is a soluble ‘receptor’ for IL-22 that has low homology to the extracellular domain of IL-22R. It neutralizes signal transduction mediated by IL-22 (Dumoutier, L. et al. (2001) J Immunol 166(12):7090-5; Kotenko, S. V. et al. (2001) J Immunol 166(12):7096-103; Xu, W. et al. (2001) Proc Natl Acad Sci USA 98(17):9511-6; Wei C-C et al. (2003) Genes & Immunity 4:204-21117). […]

[6] = target: B1; assay: blocking ELISA: IL-22BP-Fc pre-incubated 30 min with bio-IL-22 (5 ng/ml), added to 50 ng/ml total Fc of co-expressed IL-22R-Fc/IL-10R2-Fc captured on anti-human IgG wells; bound bio-IL-22 read with streptavidin-HRP, A450; blocked partner IL-22R-Fc/IL-10R2-Fc
Description: as §1, §2, §3

[7] = target: B1; assay: ELISA, bio-IL-22 on streptavidin plates, IL-22R-Fc titrated (FIG. 6B)
Description: FIG. 6B depicts the results form an ELISA assay performed in the opposite format, whereby 100 µl of 1 µg/ml biotinylated IL-22 was added to Reacti-Bind 96 well streptavidin-coated plates (Pierce, Rockford, Ill.) for one hour. After washing, Fc fusion receptor was added at various concentrations to the plates for one hour, washed and then detected with goat anti-human IgG-HRP. In FIG. 6A, fifty ng/ml of total Fc in conditioned media (CM) from CHO cells expressing either IL-22R-Fc (▪) or IL-10R2-Fc (O) was captured onto anti-human IgG coated wells. Biotinylated IL-22 (bio-IL-22) at various concentrations was then added to the wells. Bound bio-IL-22 was subsequently detected using streptavidin-HRP. In FIG. 6B, bio-IL-22 (1 μg/ml) was captured onto streptavidin plates. Various concentrations of either IL-22R-Fc (▪) or IL-10R2-Fc (O) in diluted CHO. CM was then added to the wells. Bound receptor Fc was subsequently detected using goat anti-human IgG-HRP.
IL-22 binding to the extracellular domain (ECD) of IL-22R and IL-10R2 was evaluated using two ELISA formats. In the first version, receptor-Fc fusion proteins were immobilized via the Fc domain on anti-human IgG coated plates. Biotinylated IL-22 was then added and detected with streptavidin-HRP. […] Receptor-Fc were then added and detected with HRP-conjugated, anti-hIgG.

Binder: B1
EC50 [1]: 0.02 µg/mL | fold less bio-IL-22 needed for a comparable signal than with immobilized IL-22R-Fc homodimer [2]: 8 fold

Binder: B2
IC50 [3]: 4 nM | IC50 (read off the curve) [4]: ~0.5 nM | IC50 [5]: 2 nM | IC50 (read off the curve) [6]: ~0.2 nM

Binder: B3
EC50 [7]: 0.006 µg/mL
